From patent US20160298117, “PEANUT-BINDING NUCLEIC ACID MOLECULE AND USE THEREOF” (NEC Solution Innovators, Ltd., published 2016)

T1: Ara h1 (heat-denatured, purified from parboiled peanut) (Arachis hypogaea, UniProt P43238 P43238:26-626)
T1 sequence: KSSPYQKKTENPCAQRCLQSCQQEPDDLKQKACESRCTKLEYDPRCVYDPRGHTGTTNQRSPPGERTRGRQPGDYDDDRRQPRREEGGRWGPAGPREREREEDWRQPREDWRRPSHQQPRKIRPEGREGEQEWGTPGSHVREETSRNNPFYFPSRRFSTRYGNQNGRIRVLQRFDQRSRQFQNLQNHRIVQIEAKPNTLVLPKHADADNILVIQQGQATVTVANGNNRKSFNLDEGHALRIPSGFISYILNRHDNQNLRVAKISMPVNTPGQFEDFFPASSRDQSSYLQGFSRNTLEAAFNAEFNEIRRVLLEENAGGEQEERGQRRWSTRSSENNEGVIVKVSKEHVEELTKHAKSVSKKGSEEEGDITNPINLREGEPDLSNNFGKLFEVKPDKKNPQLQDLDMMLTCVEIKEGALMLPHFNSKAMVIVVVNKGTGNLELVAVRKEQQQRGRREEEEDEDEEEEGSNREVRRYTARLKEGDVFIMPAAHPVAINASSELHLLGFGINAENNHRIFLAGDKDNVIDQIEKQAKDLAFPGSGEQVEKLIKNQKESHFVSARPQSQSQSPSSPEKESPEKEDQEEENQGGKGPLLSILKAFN

T2: conarachin (undenatured) (Arachis hypogaea, UniProt P43238 P43238:26-626)
T2 sequence: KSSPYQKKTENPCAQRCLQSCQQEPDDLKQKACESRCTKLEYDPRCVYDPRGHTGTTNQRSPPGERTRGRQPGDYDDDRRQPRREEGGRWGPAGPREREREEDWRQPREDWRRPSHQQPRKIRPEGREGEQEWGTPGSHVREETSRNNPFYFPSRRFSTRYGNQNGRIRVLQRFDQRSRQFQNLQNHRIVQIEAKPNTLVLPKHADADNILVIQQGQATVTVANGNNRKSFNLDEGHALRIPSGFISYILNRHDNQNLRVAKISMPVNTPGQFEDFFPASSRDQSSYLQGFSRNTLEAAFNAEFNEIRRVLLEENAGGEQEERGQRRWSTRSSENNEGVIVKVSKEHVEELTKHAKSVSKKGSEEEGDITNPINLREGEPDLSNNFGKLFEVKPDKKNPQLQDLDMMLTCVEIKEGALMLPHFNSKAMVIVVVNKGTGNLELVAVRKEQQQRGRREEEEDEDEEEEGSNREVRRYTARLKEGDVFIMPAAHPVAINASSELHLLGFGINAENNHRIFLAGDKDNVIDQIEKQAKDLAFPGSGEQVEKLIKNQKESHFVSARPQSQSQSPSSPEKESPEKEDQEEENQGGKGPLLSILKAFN

B1: CT25_C0 (ssDNA)
DNA: CTCTCTCTCTCTCTCTCTCTCTCTCAAAAAAAAAAAAAAAAAAAAAAAA
B2: CA25_C11 (ssDNA)
DNA: CACACACACCCCCCCCCCCACACACAAAAAAAAAAAAAAAAAAAAAAAAA
B3: CA25_C7 (ssDNA)
DNA: CACACACACACCCCCCCACACACACAAAAAAAAAAAAAAAAAAAAAAAAA
B4: CA25_C3 (ssDNA)
DNA: CACACACACACACCCACACACACACAAAAAAAAAAAAAAAAAAAAAAAAA
B5: CA25_C0 (ssDNA)
DNA: CACACACACACACACACACACACACAAAAAAAAAAAAAAAAAAAAAAAAA
B6: P_NES01 (NAH1128R7Am2s19G) (ssDNA)
DNA: CCCGCCTGTATTCCTGTCCAAAAAAAAAAAAAAAAAAAAAAAA
B7: CT25_C3 (Pyrimidine rich) (ssDNA)
DNA: CTCTCTCTCTCTCCCTCTCTCTCTCAAAAAAAAAAAAAAAAAAAAAAAA

Experiments:
[1] = molecular target: T1, Ara h1 (heat-denatured, purified from …); assay: SPR; very high binding; conditions: tags: INDOOR biotechnologies NA-AH1-1
Method: (§1) First, as a sensor chip designed specifically for the ProteON, a streptavidin-immobilized chip (trade name: ProteOn NLC Sensor Chip, BioRad) was set in the ProteON XPR36. Biotinylated poly(dT) at 5 μmol/L was injected to a flow cell of the sensor chip using ultrapure water (DDW), and the binding was allowed to proceed until the signal intensity (RU: Resonance Unit) reached about 900 RU. The biotinylated poly(dT) was prepared by biotinylating the 5′ end of 24-mer deoxythymidine. Then, the poly(dA)-added aptamer at 1 μmol/L was injected to the flow cell of the chip using an SPR buffer at a flow rate of 25 μL/min for 80 seconds, and the binding was allowed to proceed until the signal intensity reached about 800 RU. […] Subsequently, the sample was injected using the SPR buffer at a flow rate of 50 μL/min for 120 seconds, followed by washing performed by flowing the SPR buffer under the same conditions. Signal intensity measurement was performed concurrently with the injection of the sample and the washing with the SPR buffer.
(§2) Except that the following eight types of aptamers were used as pyrimidine-rich aptamers, the binding forces to Ara h1, heat-denatured peanut proteins, undenatured β-conglycinin, and heat-denatured soybean proteins were examined by SPR in the same manner as in the above-described examples.

[2] = molecular target: T3, beta-conglycinin (undenatured) (Glycine max, UniProt P0DO16;P11827;P25974 P0DO16:63-605,P11827:63-621,P25974:24-439); assay: SPR; little binding; conditions: tags: Sigma C5868-5GM
T3 sequence (P0DO16 63-605, chain 1 of 3): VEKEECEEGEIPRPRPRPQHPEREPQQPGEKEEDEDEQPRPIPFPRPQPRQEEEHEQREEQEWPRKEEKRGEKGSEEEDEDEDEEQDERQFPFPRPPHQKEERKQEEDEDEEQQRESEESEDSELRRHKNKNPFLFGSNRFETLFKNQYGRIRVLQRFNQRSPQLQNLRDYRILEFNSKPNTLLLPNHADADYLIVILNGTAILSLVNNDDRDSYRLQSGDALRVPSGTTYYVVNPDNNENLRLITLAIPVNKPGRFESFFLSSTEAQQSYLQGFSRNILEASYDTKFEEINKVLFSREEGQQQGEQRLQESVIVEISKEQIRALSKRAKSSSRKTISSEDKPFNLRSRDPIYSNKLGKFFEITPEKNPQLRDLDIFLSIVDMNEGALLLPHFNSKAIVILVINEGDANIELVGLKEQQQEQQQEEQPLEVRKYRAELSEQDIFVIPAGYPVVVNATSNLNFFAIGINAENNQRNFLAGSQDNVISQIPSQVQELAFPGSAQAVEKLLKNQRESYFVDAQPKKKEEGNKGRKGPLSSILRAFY
T3 sequence (P11827 63-621, chain 2 of 3): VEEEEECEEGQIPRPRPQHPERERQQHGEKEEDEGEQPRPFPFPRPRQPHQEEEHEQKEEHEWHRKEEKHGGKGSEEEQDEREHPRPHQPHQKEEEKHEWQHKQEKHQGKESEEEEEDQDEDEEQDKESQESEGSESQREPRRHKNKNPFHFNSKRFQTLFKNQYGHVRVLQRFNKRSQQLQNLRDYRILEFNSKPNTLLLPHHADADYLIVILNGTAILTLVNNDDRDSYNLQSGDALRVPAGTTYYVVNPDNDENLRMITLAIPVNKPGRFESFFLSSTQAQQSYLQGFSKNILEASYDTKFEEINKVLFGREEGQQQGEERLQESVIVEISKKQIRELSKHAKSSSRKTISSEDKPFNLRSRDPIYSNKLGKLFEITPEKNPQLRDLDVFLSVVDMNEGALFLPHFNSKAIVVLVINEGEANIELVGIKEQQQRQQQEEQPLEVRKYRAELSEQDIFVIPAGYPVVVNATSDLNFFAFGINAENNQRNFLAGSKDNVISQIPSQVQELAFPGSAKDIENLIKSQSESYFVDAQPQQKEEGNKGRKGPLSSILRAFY
T3 sequence (P25974 24-439, chain 3 of 3): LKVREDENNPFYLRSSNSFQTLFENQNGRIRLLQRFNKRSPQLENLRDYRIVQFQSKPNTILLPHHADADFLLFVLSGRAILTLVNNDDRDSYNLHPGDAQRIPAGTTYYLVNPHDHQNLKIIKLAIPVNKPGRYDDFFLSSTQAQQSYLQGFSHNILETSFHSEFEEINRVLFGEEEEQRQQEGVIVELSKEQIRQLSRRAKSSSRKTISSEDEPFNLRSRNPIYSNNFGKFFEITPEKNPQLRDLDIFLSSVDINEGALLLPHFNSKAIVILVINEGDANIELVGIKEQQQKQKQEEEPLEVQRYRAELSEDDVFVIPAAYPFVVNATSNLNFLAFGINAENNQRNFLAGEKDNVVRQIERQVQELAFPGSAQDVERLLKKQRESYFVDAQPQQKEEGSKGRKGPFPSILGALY
Method: as §1, §2

[3] = molecular target: T3, beta-conglycinin (undenatured); assay: SPR; little binding, 18.75-300 nM; conditions: tags: Sigma C5868-5GM
Method: as §1
(§3) The concentrations of the β-conglycinin were set to 18.75, 37.5, 75, 150, and 300 nmol/L, and the protein concentrations in the soybean samples were set to 1, 3, 10, 30, and 100 ppm. The SPR analysis was performed in the same manner as in Example 1, except that these samples were used. Then, from the results of the above-described SPR analysis, the relative binding value was determined regarding the proteins in each peanut sample bound to the aptamer immobilized on the chip. The relative binding value was calculated as the ratio of the protein binding measured value to the aptamer immobilization measured value (the protein binding measured value/the aptamer immobilization measured value).

[4] = molecular target: T2, conarachin (undenatured); assay: SPR; 40 mM HEPES pH 7.5, 125 mM NaCl, 5 mM KCl, 1 mM MgCl2, 0.05% Tween 20; conditions: tags: COSMO BIO CSB-CSB-NP003601PL
Method: (§4) First, as a sensor chip designed specifically for the ProteON, a streptavidin-immobilized chip (trade name: ProteOn NLC Sensor Chip, BioRad) was set in the ProteON XPR36. Biotinylated poly(dT) at 5 μmol/L was injected to a flow cell of the sensor chip using ultrapure water (DDW), and the binding was allowed to proceed until the signal intensity (RU: Resonance Unit) reached about 900 RU. The biotinylated poly(dT) was prepared by biotinylating the 5′ end of 24-mer deoxythymidine. Then, the poly(dA)-added aptamer at 1 μmol/L was injected to the flow cell of the chip using an SPR buffer at a flow rate of 25 μL/min for 80 seconds, and the binding was allowed to proceed until the signal intensity reached about 800 RU. […]
(§5) Samples were prepared by adjusting commercially available peanut allergen conarachin (COSMO BIO, CSB-CSB-NP003601PL, Arachis hypogaea seed, Native) to 50 nmol/L, 25 nmol/L, 12.5 nmol/L, 6.25 nmol/L, and 3.125 nmol/L. The conarachin is a undenatured protein, and the conarachin generally accounts for about 17% of the total amount of peanut proteins in a peanut. The SPR analysis was carried out in the same manner as in Example 1, and the kinetic parameter was calculated from the results of the analysis.

[5] = molecular target: beta-conglycinin (heat-denatured, boiled 10 min) (Glycine max, UniProt P0DO16;P11827;P25974 P0DO16:63-605,P11827:63-621,P25974:24-439); assay: SPR; little binding, 18.75-300 nM; conditions: tags: Sigma C5868-5GM
Chain of beta-conglycinin (heat-denatured, boiled 10 min) (P0DO16 63-605, chain 1 of 3): as the sequence (P0DO16 63-605, chain 1 of 3) above
Chain of beta-conglycinin (heat-denatured, boiled 10 min) (P11827 63-621, chain 2 of 3): as the sequence (P11827 63-621, chain 2 of 3) above
Chain of beta-conglycinin (heat-denatured, boiled 10 min) (P25974 24-439, chain 3 of 3): as the sequence (P25974 24-439, chain 3 of 3) above
Method: as §1, with “Biotinylated” for “First, as a sensor chip designed specifically for the ProteON, a streptavidin-immobilized chip (trade name: ProteOn NLC Sensor Chip, BioRad) was set in the ProteON XPR36. Biotinylated”
As soybean allergen samples, undenatured β-conglycinin, heat-denatured β-conglycinin, undenatured soybean proteins, and heat-denatured soybean proteins were provided. A commercially available product (Sigma, trade name β-conglycinin from Glycine max (soybean), C5868-5GM) was used as the undenatured β-conglycinin. The heat-denatured β-conglycinin was prepared by boiling the undenatured β-conglycinin for 10 minutes and then collecting a supernatant fraction. As the undenatured soybean proteins and the heat-denatured soybean proteins, the undenatured soybean sample and the heat-denatured soybean sample in Example 1 were used.
as §3, with “chip.” for “chip. The relative binding value was calculated as the ratio of the protein binding measured value to the aptamer immobilization measured value (the protein binding measured value/the aptamer immobilization measured value).”

[6] = molecular target: T2, conarachin (undenatured); assay: SPR; same SPR buffer; conditions: tags: COSMO BIO CSB-CSB-NP003601PL
Method: as §4, §5

| Binder | binding result [1] | binding result [2] | binding result [3] | Kd [4] | binding result [5] | Kd [6] |
| --- | --- | --- | --- | --- | --- | --- |
| B1 | binds | no binding | – | – | – | – |
| B2 | binds | no binding | – | – | – | – |
| B3 | binds | no binding | – | – | – | – |
| B4 | binds | no binding | – | – | – | – |
| B5 | binds | no binding | – | – | – | – |
| B6 | – | – | no binding | 0.259 nM | no binding | – |
| B7 | – | – | no binding | – | no binding | 0.28 nM |
